The text below walks through data of US20200102347A1 (AUCTUS BIOLOGIES, published 2020).

B2: native RPtag(small) (peptide)
peptide: RhodamineB-GEKIPNFIPAELKLITKENVQ
notes: Synthetic peptide
B4: NativeRPtag(large)_with_Tags_and_Cys (other)
chain: MGSSCHHHHHHSQDPNSSSMKEGKTIGLVISTLNNPFFVTLKNGAEEKAKELGYKIIVEDSQNDSSKELSNVEDLIQQKVDVLLINPVDSDAVVTAIKEANSKNIPVITIDRSANGGDVVSHIASDNVKGGEMAAEFIAKALKGKGNVVELEGIPGASAARDRGKGFDEAIAKYPDIKIVAKQAADFDRSKGLSVMENILQAQPKIDAVFAQNDEMALGAIKAIEAANRQGIIVVGFDGTEDALKAIKEGKMAATIAQQPALMGSLGVEMADKYLK
notes: Unlabeled in anisotropy assays; coupled through the engineered N-terminal Cys to SulfoLink agarose or maleimide plates in column, pull-down and ELISA assays

No end group written: not given here. *: point of attachment. RhodamineB = CCN(CC)c1ccc2c(-c3ccccc3C(=O)*)c3ccc(=[N+](CC)CC)cc-3oc2c1

Assay [1] concerns the target B4. As to the kind of experiment: fluorescence anisotropy; KCl (3M). (In general: Polarisation of emitted light reports the rotation of a fluorescent probe.)
Assay [2] has as its target B4. As to the kind of experiment: fluorescence anisotropy; MgCl2 (3M).
Assay [3] has as its target B4. Briefly: fluorescence anisotropy; 50 mM Tris pH 8.0, 0.005% Tween 20, no additive.
Assay [4] has as its target B4. Briefly: fluorescence anisotropy; MnSO4 (10 mM).
Assay [5] addresses B4. As to the kind of experiment: fluorescence anisotropy; BME (10%).
In assay [6] the target is B4. Briefly: fluorescence anisotropy, competitor chase; 50 mM Tris pH 8.0, 0.005% Tween 20, no additive.
The target of assay [7] is B4. As to the kind of experiment: fluorescence anisotropy; Tween20 (2%).
The target in assay [8] is B4. Briefly: fluorescence anisotropy; NaCl (3M).
Assay [9] concerns the target B4. As to the kind of experiment: calculated from koff and Kd; 50 mM Tris pH 8.0, 0.005% Tween 20, no additive.
Assay [10] concerns the target B4. Briefly: fluorescence anisotropy; acetone (20%).
Assay [11] addresses B4. As to the kind of experiment: fluorescence anisotropy; glycerol (20%).
Assay [12] concerns the target B4. Briefly: fluorescence anisotropy; PG (50%).
For assay [13], the target named is B4. As to the kind of experiment: fluorescence anisotropy; DMSO (20%).
Assay [14] has as its target B4. Briefly: fluorescence anisotropy; NiCl2 (100 mM).
The target of assay [15] is B4. As to the kind of experiment: competition fluorescence anisotropy; 1 µM RPtag large and 1 µM rhodamine PDGF-β N-terminal peptide (the displaced ligand), unlabeled Nd2,p5a,e18a titrated, 1 h; 50 mM Tris pH 8.0, 0.005% Tween20.
The target in assay [16] is B4. As to the kind of experiment: fluorescence anisotropy; sorbitol (3M).
Assay [17] deals with B4. As to the kind of experiment: fluorescence anisotropy; TritonX-100 (2%).
For assay [18], the target named is B4. As to the kind of experiment: fluorescence anisotropy; NH4SO4 (3M).
Assay [19] concerns the target B4. As to the kind of experiment: fluorescence anisotropy; ribose (3M).
Assay [20] deals with B4. As to the kind of experiment: fluorescence anisotropy; MeOH (20%).
In assay [21] the target is B4. As to the kind of experiment: fluorescence anisotropy; CaCl2 (3M).
Assay [22] has as its target B4. Briefly: fluorescence anisotropy; DTT (100 mM).
For assay [23], the target named is B4. Briefly: fluorescence anisotropy; No Additive; No Additive; 100 mM Tris pH 8.0, 0.005% Tween 20 (Table 3).
The target of assay [24] is B4. As to the kind of experiment: fluorescence anisotropy; EtOH (20%).
Assay [25] has as its target B4. Briefly: fluorescence anisotropy, chase with 0.1 mM unlabeled native RPtag small, first order fit; no additive; first order fit of the dissociation traces (n=15).
In assay [26] the target is B4. As to the kind of experiment: fluorescence anisotropy; No Additive.
Assay [27] has as its target B4. Briefly: calculated from koff and Kd; no additive; calculated in the text from koff and Kd.
The target in the next assay is T1, Bovine Serum Albumin (bovine, UniProt P02769 25-607).
T1 construct: also called BSA
Briefly: fluorescence anisotropy; 1 nM rhodamine native RPtag (small), BSA titrated.

Assay [28] deals with B4. As to the kind of experiment: fluorescence anisotropy, association kinetics.
The target of assay [29] is B4. Briefly: calculated from koff and Kd.
In assay [30] the target is B4. Briefly: fluorescence anisotropy, competitor chase.
For assay [31], the target named is B4. Briefly: fluorescence anisotropy kinetics.
Assay [32] addresses B4. As to the kind of experiment: fluorescence anisotropy.
Assay [33] concerns the target B2. Briefly: fluorescence anisotropy, 1 nM rhodamine peptide.
Assay [34] has as its target T2, MaturePDGF-β_NterminalPeptide.
T2 construct: an N-terminal G was added and is left out of the numbering; also called PDGF-β peptide
T2 peptide: RhodamineB-GSLGSLTIAEPAMIAE
Briefly: fluorescence anisotropy, 20 nM rhodamine PDGF-β N-terminal peptide.

Assay [35] deals with B2. As to the kind of experiment: fluorescence anisotropy.
For assay [36], the target named is B2. As to the kind of experiment: fluorescence anisotropy after a 15 min 121 C autoclave cycle of RP-tag (large); RP-tag (large) autoclaved 15 min at 121 C before the measurement.
In assay [37] the target is T3, RP-Tag Small (Sequence 3: SEQ ID NO:13 with a glycine serine tail) (Thermoanaerobacter tengcongensis, chain 1: N-terminal Rhodamine B / Rhodamine 6B label (FIG. 4 legend of Sequence 3)).
T3 construct: also called RP-small peptide
T3 peptide: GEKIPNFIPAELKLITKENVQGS
Briefly: fluorescence anisotropy; 50 nM N-terminal Rhodamine B RP-Tag Small, RP-Tag Large titrated; 50 mM Tris pH 8.0, 150 mM NaCl, 10 mM 2-mercaptoethanol, 0.005% Tween 20.

The next assay addresses T4, RPtag(small) l14a (Thermoanaerobacter tengcongensis, N-terminal rhodamine).
T4 peptide: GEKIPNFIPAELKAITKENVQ
As to the kind of experiment: fluorescence anisotropy; 1 nM rhodamine RPtag small peptide, unlabeled RPtag large titrated, 1 h; 50 mM Tris pH 8.0, 0.005% Tween20; bar of Ka = 1/Kd.

In a further assay the target is T5, RPtag(small) l14k (Thermoanaerobacter tengcongensis, N-terminal rhodamine).
T5 construct: also called L14K RPtag(small)
T5 peptide: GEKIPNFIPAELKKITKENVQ
The assay is described as above.

Assay [38] concerns the target T3, RP-Tag Small (Sequence 3: SEQ ID NO:13 …). Briefly: fluorescence anisotropy, 50 nM Rhodamine B RP-Tag Small.
The next assay deals with T6, RPtag(small) Nd2, Cd4 (Thermoanaerobacter tengcongensis).
T6 peptide: RhodamineB-KIPNFIPAELKLITK
Briefly: fluorescence anisotropy; 2 nM rhodamine Nd2Cd4, unlabeled RPtag large variant titrated; bar of Ka = 1/Kd, right axis.

The target of assay [39] is B2. As to the kind of experiment: fluorescence anisotropy; 1 nM rhodamine native RPtag (small), RPtag (large) titrated.

T1 sequence (P02769 25-607 limits assumed): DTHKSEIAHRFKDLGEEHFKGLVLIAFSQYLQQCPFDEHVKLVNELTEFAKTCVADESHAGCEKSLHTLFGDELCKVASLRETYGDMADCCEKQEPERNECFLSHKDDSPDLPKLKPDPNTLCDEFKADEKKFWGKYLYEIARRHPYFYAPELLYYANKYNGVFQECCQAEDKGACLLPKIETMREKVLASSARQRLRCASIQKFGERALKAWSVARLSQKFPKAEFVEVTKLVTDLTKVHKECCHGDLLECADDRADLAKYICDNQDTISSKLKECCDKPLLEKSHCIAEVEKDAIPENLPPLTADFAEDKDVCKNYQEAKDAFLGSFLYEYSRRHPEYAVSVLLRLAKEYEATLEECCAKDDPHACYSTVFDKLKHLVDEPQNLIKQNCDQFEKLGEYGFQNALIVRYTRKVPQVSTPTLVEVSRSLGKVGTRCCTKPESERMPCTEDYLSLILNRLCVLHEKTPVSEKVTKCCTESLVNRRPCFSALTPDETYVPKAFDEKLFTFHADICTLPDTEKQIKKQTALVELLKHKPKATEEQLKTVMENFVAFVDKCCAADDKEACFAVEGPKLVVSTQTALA

B1: RPtag(small) Nd2, p5a, e18a (peptide)
peptide: RhodamineB-KIANFIPAELKLITKANVQ
modifications: also: also used unlabeled as competitor
notes: Rhodamine labeled in the Kd assays; also called RPtag(small) (tight)
A word on the Kd: it is the concentration at which binding is half-saturated. A word on the koff: it is a measure of how fast the partners let go of each other. Higher therefore signals a short-lived complex. In general, kon refers to the rate constant with which the complex forms. Take B1: the Kd in assay [1] is 0.011 nM; in assay [2], 350 nM; in [3] it was 0.047 nM; in assay [4] it was 22 nM; in [5] it was 6.7 nM; in assay [7], 4.7 nM. For the same molecule, the equilibrium dissociation constant (Kd) in assay [8] is under 0.001 nM; in assay [10], 0.019 nM; in assay [11], under 0.001 nM; in assay [12], 49 nM; in assay [13] it was 0.023 nM; in assay [14], 2.2 nM. For the same molecule, the Kd in assay [16] is under 0.001 nM; in assay [17], 0.046 nM; in assay [18], 44 nM; in assay [19] it was under 0.001 nM; in assay [20], 0.056 nM; in [21], 150 nM. The figures for the equilibrium dissociation constant (Kd) in [22], in assay [23] and in [24] were 0.073 nM, 0.037 nM and 0.1 nM, respectively. The off-rate constant (koff) in [6] was 0.000217 s⁻¹. Moreover, the kon in [9] was 4.67e+06 M⁻¹ s⁻¹. Further, the “IC50 (read off the curve)” value in assay [15] was about 500 nM.
As to B2, the Kd is under 0.001 nM in assay [1]; 124 nM in assay [2]; 0.21 nM in assay [3]; 160 nM in assay [4]; 5.3 nM in [5]; 0.49 nM in assay [7]. In addition, the Kd in assay [8] stood at 0.0027 nM; in [10], 0.15 nM; in [11] it was 0.034 nM; in assay [12], 19 nM; in [13] it was 0.17 nM; in assay [14] it was 3.2 nM. In addition, the Kd in assay [26] stood at 0.21 nM; in assay [16], 2.5 nM; in [17], 0.64 nM; in assay [18] it was 1.5 nM; in [19] it was 0.023 nM; in assay [20], 0.11 nM. Also, the Kd in [21] worked out at 330 nM; in assay [22], 0.51 nM; in assay [24], 0.17 nM. Further, the figures for the off-rate (koff) in assay [6] and in assay [25] were 0.000152 s⁻¹ and 0.0002 s⁻¹, respectively. The kon in [9] was 717000 M⁻¹ s⁻¹; in assay [27], about 767000 M⁻¹ s⁻¹. In addition, the binding result in the assay with Bovine Serum Albumin is reported as “no binding”. In [28], the “Keq (S-S*)” value was determined as 1.6. For the same molecule, the “kf (S to S*)” value in assay [28] stood at 0.092 min⁻¹. In [28], the “kr (S* to S)” value came to 0.056 min⁻¹.

B3: RPtag(small) p5a (peptide)
peptide: RhodamineB-GEKIANFIPAELKLITKENVQ
On to B3, for which the kon in [29] was 1.83e+06 M⁻¹ s⁻¹. In assay [30], the koff is 0.0004 s⁻¹. Besides, in assay [31], the “fold increase of kon and koff against native” value is about 7 fold. Besides, in assay [28], the “Keq (S-S*)” value was determined as 1.8, the “kf (S to S*)” value came out at 0.093 min⁻¹ and the “kr (S* to S)” value turned out to be 0.052 min⁻¹. The molecule further gave an equilibrium dissociation constant (Kd) in assay [32] of 0.23 nM.
A word on the EC50 (read off the curve): it is the concentration that produces a half-maximal response. Consider B4, for which the equilibrium dissociation constant (Kd) with native RPtag(small) [33] was determined as 0.2 nM; in assay [34], 7300 nM; with native RPtag(small) [36], 53 nM; in assay [38], 8 nM. In addition, the “fold better Kd than anti-6xHis/6xHis” value in the assay with native RPtag(small) [35] is about 30 fold. Besides, the “fold selectivity over BSA” value with native RPtag(small) [35] is over 50000 fold. Also, the “EC50 (read off the curve)” value in assay [37] is about 30 nM; with native RPtag(small) [39], about 0.8 nM. Moreover, the binding result with RPtag(small) l14a was “binds”; with RPtag(small) l14k, “binds”; with RPtag(small) Nd2, Cd4 it was “binds”.
